# In patent publication US20130330358A1, “CRYSTAL STRUCTURE AND PEPTIDE INHIBITORS OF HAUSP DEUBIQUITINASE” (priority 2011, published 2013):
# Biological target: HAUSP TRAF domain (HAUSP^62-205) (human)
# Assay: ITC, titration against HAUSP TRAF domain, 20 °C
Binder,n (stoichiometry),Ka
EGASTSGM (modifications not checked) [vIRF4^209-216 peptide],0.81,–
EQGPADDPGEGPSTG (modifications not checked) [EBNA1^435-449 peptide],0.81,–
LVQELQEEKPSSSHL (modifications not checked) [MDM2^137-152 peptide],–,90000 M⁻¹
